{
  "source": "patent US20240052042A1",
  "about": "(Novartis, published 2024)",
  "key": {"human NPR2 on CHO cells": {"target": "T1, human NPR2 on CHO cells (human, UniProt P20594 23-1047)", "T1 sequence (looked up)": "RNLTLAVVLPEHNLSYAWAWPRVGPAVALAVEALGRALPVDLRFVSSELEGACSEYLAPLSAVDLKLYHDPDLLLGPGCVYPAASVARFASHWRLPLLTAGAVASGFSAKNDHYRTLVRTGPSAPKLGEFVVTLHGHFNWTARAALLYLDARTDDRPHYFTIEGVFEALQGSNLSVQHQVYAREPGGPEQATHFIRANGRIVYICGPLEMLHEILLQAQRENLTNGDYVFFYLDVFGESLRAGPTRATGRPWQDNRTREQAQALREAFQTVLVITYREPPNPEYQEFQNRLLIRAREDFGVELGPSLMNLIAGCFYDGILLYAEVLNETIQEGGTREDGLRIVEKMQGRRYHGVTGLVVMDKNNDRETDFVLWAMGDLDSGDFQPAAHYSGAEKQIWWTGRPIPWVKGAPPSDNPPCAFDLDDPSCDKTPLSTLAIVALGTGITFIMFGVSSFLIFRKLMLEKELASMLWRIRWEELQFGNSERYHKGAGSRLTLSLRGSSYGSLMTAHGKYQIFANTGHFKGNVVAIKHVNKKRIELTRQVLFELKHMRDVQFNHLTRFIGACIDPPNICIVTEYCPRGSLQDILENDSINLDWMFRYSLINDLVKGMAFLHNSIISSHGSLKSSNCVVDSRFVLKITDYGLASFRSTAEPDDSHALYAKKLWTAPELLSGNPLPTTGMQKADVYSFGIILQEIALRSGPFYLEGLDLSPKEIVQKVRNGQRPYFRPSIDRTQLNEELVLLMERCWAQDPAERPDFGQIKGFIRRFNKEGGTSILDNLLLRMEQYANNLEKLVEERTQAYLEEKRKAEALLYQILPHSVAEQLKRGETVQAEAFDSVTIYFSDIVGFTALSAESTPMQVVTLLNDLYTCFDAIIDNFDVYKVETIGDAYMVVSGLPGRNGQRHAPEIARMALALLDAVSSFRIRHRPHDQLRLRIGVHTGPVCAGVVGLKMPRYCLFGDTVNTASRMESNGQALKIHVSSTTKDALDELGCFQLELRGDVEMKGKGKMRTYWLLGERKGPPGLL", "assay": "cell-based or functional assay"}, "hNPR1-ANP complex": {"target": "T2, hNPR1-ANP complex (human, UniProt P01160 124-151, limits assumed)", "T2 construct": "hNPR1 antigen in the presence of ANP; also called hNPR1 + 100 nM ANP", "T2 sequence": "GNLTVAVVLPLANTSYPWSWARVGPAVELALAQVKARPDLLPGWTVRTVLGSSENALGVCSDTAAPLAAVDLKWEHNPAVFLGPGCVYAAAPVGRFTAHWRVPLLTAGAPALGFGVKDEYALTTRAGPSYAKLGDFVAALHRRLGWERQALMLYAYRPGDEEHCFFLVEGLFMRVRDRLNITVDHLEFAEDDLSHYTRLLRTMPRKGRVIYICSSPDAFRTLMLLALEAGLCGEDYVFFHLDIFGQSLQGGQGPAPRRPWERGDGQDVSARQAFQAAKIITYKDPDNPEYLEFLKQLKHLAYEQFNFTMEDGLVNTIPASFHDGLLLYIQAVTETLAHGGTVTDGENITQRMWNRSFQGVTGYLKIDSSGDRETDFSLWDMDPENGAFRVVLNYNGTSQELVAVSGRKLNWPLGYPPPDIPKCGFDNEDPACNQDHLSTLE", "T2 sequence (peptide)": "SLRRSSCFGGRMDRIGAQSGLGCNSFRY", "assay": "SET, FabCys"}, "[1]": {"target": "T3, human Natriuretic Peptide Receptor 1 (hNPR1) (human, UniProt P16066 33-473, limits assumed)", "T3 construct": "pannings used NPR1-hFc; also called NPR1-hFc", "T3 sequence": "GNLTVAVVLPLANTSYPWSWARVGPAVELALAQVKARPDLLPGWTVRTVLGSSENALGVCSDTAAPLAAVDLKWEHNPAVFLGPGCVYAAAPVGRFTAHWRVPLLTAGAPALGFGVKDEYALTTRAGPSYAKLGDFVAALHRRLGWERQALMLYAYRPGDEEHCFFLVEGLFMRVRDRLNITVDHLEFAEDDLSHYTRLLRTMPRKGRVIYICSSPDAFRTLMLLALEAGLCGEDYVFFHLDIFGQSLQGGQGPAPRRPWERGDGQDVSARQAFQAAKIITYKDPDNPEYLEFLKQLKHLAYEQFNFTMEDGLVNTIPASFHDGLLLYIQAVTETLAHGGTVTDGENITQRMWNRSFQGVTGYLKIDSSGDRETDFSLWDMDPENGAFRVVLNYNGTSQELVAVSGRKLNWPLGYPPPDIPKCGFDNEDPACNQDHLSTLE", "assay": "SET, FabCys"}, "rNPR1-ANP complex": {"target": "T4, rNPR1-ANP complex (rat, UniProt P01160 124-151 (human entry), limits assumed)", "T4 construct": "rNPR1 antigen in the presence of ANP; also called rNPR1 + 100 nM ANP", "T4 sequence": "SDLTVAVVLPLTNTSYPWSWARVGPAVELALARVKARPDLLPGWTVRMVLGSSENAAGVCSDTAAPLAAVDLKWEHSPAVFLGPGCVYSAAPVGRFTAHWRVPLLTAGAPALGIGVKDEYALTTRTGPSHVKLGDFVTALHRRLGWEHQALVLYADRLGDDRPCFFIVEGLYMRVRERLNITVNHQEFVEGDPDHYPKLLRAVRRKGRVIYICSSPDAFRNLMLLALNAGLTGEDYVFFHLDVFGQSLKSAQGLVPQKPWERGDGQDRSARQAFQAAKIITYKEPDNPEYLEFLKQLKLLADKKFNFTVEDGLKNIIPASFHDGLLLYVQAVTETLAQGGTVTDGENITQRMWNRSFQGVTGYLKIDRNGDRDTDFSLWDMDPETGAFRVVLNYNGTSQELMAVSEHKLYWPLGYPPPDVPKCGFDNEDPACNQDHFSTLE", "T4 sequence (peptide)": "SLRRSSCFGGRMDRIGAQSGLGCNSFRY", "assay": "SET, FabCys"}, "rat NPR1 (rNPR1)": {"target": "T5, rat NPR1 (rNPR1) (rat, UniProt P18910 29-469, limits assumed)", "T5 construct": "Soluble antigen", "T5 sequence": "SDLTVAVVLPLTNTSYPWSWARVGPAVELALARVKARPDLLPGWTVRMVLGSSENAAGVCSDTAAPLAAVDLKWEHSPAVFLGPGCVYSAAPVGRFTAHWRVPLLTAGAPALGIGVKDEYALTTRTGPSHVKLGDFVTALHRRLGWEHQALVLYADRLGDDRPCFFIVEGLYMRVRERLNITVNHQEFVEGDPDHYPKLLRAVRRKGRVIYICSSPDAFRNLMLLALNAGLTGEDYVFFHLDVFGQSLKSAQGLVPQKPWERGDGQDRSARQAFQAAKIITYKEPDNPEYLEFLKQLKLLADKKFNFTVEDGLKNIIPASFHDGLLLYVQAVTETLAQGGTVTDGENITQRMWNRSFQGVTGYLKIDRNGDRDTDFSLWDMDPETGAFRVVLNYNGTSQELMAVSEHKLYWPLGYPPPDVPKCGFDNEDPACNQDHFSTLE", "assay": "SET, FabCys"}, "[2]": {"target": "T6, human NPR1 on CHO-K1 cells (human, UniProt P16066 33-1061)", "T6 sequence": "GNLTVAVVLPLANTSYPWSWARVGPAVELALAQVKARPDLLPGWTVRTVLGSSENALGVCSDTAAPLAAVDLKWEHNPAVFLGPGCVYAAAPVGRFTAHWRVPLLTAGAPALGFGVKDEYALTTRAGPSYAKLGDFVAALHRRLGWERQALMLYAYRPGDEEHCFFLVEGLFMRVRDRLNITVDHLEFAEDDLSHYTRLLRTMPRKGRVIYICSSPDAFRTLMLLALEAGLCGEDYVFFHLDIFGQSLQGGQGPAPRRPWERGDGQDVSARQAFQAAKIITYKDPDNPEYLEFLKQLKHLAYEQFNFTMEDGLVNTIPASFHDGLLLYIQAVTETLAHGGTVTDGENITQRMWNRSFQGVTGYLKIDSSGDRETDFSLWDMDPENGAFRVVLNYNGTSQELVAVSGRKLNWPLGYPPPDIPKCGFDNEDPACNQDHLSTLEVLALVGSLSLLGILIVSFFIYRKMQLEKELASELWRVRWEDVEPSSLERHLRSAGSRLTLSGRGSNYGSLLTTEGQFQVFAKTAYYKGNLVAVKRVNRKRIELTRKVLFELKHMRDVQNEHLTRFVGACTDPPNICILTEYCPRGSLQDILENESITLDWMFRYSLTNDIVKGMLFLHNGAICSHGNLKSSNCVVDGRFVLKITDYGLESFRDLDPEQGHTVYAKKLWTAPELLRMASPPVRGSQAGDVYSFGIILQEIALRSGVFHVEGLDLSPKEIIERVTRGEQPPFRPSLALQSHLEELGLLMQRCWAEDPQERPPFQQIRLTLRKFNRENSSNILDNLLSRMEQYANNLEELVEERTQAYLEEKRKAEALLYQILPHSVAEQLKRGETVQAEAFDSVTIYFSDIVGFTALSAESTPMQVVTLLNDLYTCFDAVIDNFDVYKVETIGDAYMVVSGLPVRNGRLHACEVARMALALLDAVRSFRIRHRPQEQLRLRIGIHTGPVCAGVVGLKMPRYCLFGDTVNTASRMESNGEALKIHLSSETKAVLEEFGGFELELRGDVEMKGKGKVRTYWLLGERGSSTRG", "assay": "cell-based or functional assay"}},
  "data": [
    {"binder": "XX16 (anti-NPR1 IgG) (antibody, V domains shown) VH: EVQLLESGGGLVQPGGSLRLSCAASGFTFSSYWMNWVRQAPGKGLEWVSVIESKGNYIFYADSVKGRFTISRDNSKNTLYLQMNSLRAEDTAVYYCARDRYSMIYSYGAGAFDYWGQGTLVTVSS VL: DIQMTQSPSSLSASVGDRVTITCRASQGISSYLAWYQQKPGKAPKLLIYTASTLQSGVPSRFSGSGSGTDFTLTISSLQPEDFATYYCQQTWRKPRTFGQGTKVEIK", "values": [
      {"measurement": "cGMP generation EC50", "setting": "human NPR2 on CHO cells", "value": "> 500", "unit": "nM"},
      {"measurement": "cGMP generation Y max (% of ANP)", "setting": "human NPR2 on CHO cells", "value": "< 1 % of ANP"}
    ]},
    {"binder": "XX15 (IgG) (antibody, V domains shown) VH: EVQLLESGGGLVQPGGSLRLSCAASGFTFSSYWMNWVRQAPGKGLEWVSVIESKGNYIFYADSVKGRFTISRDNSKNTLYLQMNSLRAEDTAVYYCARDRYSMIYSYGAGAFDYWGQGTLVTVSS VL: DIQMTQSPSSLSASVGDRVTITCRASQGISSYLAWYQQKPGKAPKLLIYTASTLQSGVPSRFSGSGSGTDFTLTISSLQPEDFATYYCQQEWVKPRTFGQGTKVEIK", "values": [
      {"measurement": "cGMP generation EC50", "setting": "human NPR2 on CHO cells", "value": "> 500", "unit": "nM"},
      {"measurement": "cGMP generation Y max (% of ANP)", "setting": "human NPR2 on CHO cells", "value": "< 1 % of ANP"}
    ]},
    {"binder": "XX18 (IgG) (antibody, V domains shown) VH: EVQLLESGGGLVQPGGSLRLSCAASGFTFSSYWMNWVRQAPGKGLEWVSVIESKGNYIFYADSVKGRFTISRDNSKNTLYLQMNSLRAEDTAVYYCARDRYSMIYSYGAGAFDYWGQGTLVTVSS VL: DIQMTQSPSSLSASVGDRVTITCRASQGISSYLAWYQQKPGKAPKLLIYTASTLQSGVPSRFSGSGSGTDFTLTISSLQPEDFATYYCQQEWAKPRTFGQGTKVEIK", "values": [
      {"measurement": "cGMP generation EC50", "setting": "human NPR2 on CHO cells", "value": "> 500", "unit": "nM"},
      {"measurement": "cGMP generation Y max (% of ANP)", "setting": "human NPR2 on CHO cells", "value": "< 1 % of ANP"}
    ]},
    {"binder": "ZZ05 (FabCys format) (Fab, V domains shown, Monovalent FabCys) VH: EVQLVQSGAEVKKPGESLKISCKGSGYSFTSYWISWVRQMPGKGLEWMGIIYPGTSYTRYSPSFQGQVTISADKSISTAYLQWSSLKASDTAMYYCARGSLPGLLGFDHWGQGTLVTVSS VL: QSVLTQPPSVSGAPGQRVTISCTGSSSNIGAGYDVHWYQQLPGTAPKLLIYGNSNRPNGVPDRFSGSKSGTSASLAITGLQAEDEADYYCQSYGAFPRFVVFGGGTKLTVL", "values": [
      {"measurement": "Kd", "setting": "hNPR1-ANP complex", "value": 1.2, "unit": "nM"},
      {"measurement": "Kd", "setting": "[1]", "value": 0.74, "unit": "nM"}
    ]},
    {"binder": "ZZ17 (FabCys format) (Fab, V domains shown, Monovalent FabCys) VH: EVQLLESGGGLVQPGGSLRLSCAASGFTFSDYAISWVRQAPGKGLEWVSSISGGGYHTQYAGSVKGRFTISRDNSKNTLYLQMNSLRAEDTAVYYCARPYLGDRRSYGFDHWGQGTLVTVSS VL: QSALTQPASVSGSPGQSITISCTGTSSDVGSYNLVSWYQQHPGKAPKLMIYEGSKRPSGVSNRFSGSKSGNTASLTISGLQAEDEADYYCSSYGFHIVVVVFGGGTKLTVL", "values": [
      {"measurement": "Kd", "setting": "rNPR1-ANP complex", "value": 36, "unit": "nM"},
      {"measurement": "Kd", "setting": "rat NPR1 (rNPR1)", "value": 52, "unit": "nM"}
    ]},
    {"binder": "WW06 (FabCys format) (Fab, V domains shown) VH: QVQLVQSGAEVKKPGESLKISCKGSGYSFTSYWIAWVRQMPGKGLEWMGRIDPDNSYTRYSPSFQGQVTISADKSISTAYLQWSSLKASDTAMYYCARWLSPGYALGEQPAGMDHWGQGTLVTVSS VL: DIVLTQPPSVSGAPGQRVTISCTGSSSNIGAGYAVHWYQQLPGTAPKLLIYSNNKRPSGVPDRFSGSKSGTSASLAITGLQAEDEADYYCQSYDLQKSSRVFGGGTKLTVL", "values": [
      {"measurement": "cGMP conc [nM] at 2 µM FabCys, +0.075 nM ANP", "setting": "[2]", "value": 251, "unit": "nM"},
      {"measurement": "cGMP conc [nM] at 2 µM FabCys, without ANP", "setting": "[2]", "value": 281, "unit": "nM"}
    ]}
  ]
}
